# B1: epidermal growth factor (protein, UniProt P01133 23-1207, looked up)
# Pro-epidermal growth factor: PQHWSCPEGTLAGNGNSTCVGPAPFLIFSHGNSIFRIDTEGTNYEQLVVDAGVSVIMDFHYNEKRIYWVDLERQLLQRVFLNGSRQERVCNIEKNVSGMAINWINEEVIWSNQQEGIITVTDMKGNNSHILLSALKYPANVAVDPVERFIFWSSEVAGSLYRADLDGVGVKALLETSEKITAVSLDVLDKRLFWIQYNREGSNSLICSCDYDGGSVHISKHPTQHNLFAMSLFGDRIFYSTWKMKTIWIANKHTGKDMVRINLHSSFVPLGELKVVHPLAQPKAEDDTWEPEQKLCKLRKGNCSSTVCGQDLQSHLCMCAEGYALSRDRKYCEDVNECAFWNHGCTLGCKNTPGSYYCTCPVGFVLLPDGKRCHQLVSCPRNVSECSHDCVLTSEGPLCFCPEGSVLERDGKTCSGCSSPDNGGCSQLCVPLSPVSWECDCFPGYDLQLDEKSCAASGPQPFLLFANSQDIRHMHFDGTDYGTLLSQQMGMVYALDHDPVENKIYFAHTALKWIERANMDGSQRERLIEEGVDVPEGLAVDWIGRRFYWTDRGKSLIGRSDLNGKRSKIITKENISQPRGIAVHPMAKRLFWTDTGINPRIESSSLQGLGRLVIASSDLIWPSGITIDFLTDKLYWCDAKQSVIEMANLDGSKRRRLTQNDVGHPFAVAVFEDYVWFSDWAMPSVMRVNKRTGKDRVRLQGSMLKPSSLVVVHPLAKPGADPCLYQNGGCEHICKKRLGTAWCSCREGFMKASDGKTCLALDGHQLLAGGEVDLKNQVTPLDILSKTRVSEDNITESQHMLVAEIMVSDQDDCAPVGCSMYARCISEGEDATCQCLKGFAGDGKLCSDIDECEMGVPVCPPASSKCINTEGGYVCRCSEGYQGDGIHCLDIDECQLGEHSCGENASCTNTEGGYTCMCAGRLSEPGLICPDSTPPPHLREDDHHYSVRNSDSECPLSHDGYCLHDGVCMYIEALDKYACNCVVGYIGERCQYRDLKWWELRHAGHGQQQKVIVVAVCVVVLVMLLLLSLWGAHYYRTQKLLSKNPKNPYEESSRDVRSRRPADTEDGMSSCPQPWFVVIKEHQDLKNGGQPVAGEDGQAADGSMQPTSWRQEPQLCGMGTEQGCWIPVSSDKGSCPQVMERSFHMPSYGTQTLEGGVEKPHSLLSANPLWQQRALDPPHQMELTQ
# modifications: Pro-epidermal growth factor
# Tests used:
# [1] = tested on: E. coli; experiment: E. coli translocation across confluent CaCo2 monolayers on Transwell membranes; type: cell-based, human
# Protocol: (§1) Two×10^8 human pathogenic Salmonella typhimurium or E. coli were added to the apical surface of confluent human CaCo2 monolayers grown on Transwell membranes (porosity 3.0 μm). Monolayers received apical EGF (100 μM) or PBS 15 min prior to infection. Each hour post infection (0-7 h), medium under the membrane was replaced and bacterial transepithelial migration rate (CFU/h) was calculated.
# [2] = tested on: Salmonella typhimurium; experiment: Salmonella typhimurium translocation across confluent CaCo2 monolayers on Transwell membranes; type: cell-based, human; conditions: apical EGF 100 μM 15 min prior to infection
# Protocol: as §1
# [3] = Stability of lyophilized EGF in drinking water; type: physicochemical; conditions: lyophilized EGF added to drinking water
# [4] = tested on: RDEC-E. coli; experiment: RDEC-E. coli intestinal infection in rabbits, oral EGF; type: in vivo, New Zealand White rabbits
# Protocol: Twenty-eight New Zealand White rabbits (6 wk-old) were studied in 3 groups: 1) Controls (Con, n=9), 2) Infected with 1×10^7 RDEC-E. coli (I, n=10), and 3) Infected-treated with 60 μg oral EGF daily for 10 days, starting 3 days prior to infection (I-EGF, n=9). Animals were assessed daily for weight gain, rectal passage of E. coli, and presence of diarrhea. Seven days post-infection, animals were killed and mucosa obtained from the jejunum (JEJ), ileum (ILE), and proximal colon (PROX) for quantitation of E. coli, and from the jejunum for mucosal enzyme assays.
# [5] = Weight gain in healthy rabbits given daily oral EGF; type: in vivo, New Zealand white rabbits
# Protocol: EGF was tested for its potential benefits on weight gain. One group of New Zealand white rabbits (6 week old, 500-700 g) received daily oral doses of recombinant human EGF (100 μg/kg body weight) and control animals were given saline only. […] Given the linear aspect of both curves, continued feeding with EGF is likely to produce a steadily increasing. effect on weight gain.
# [6] = tested on: intestinal brush border membrane nutrient absorption; experiment: Nutrient uptake into brush border membrane vesicles after jejunal loop treatment; type: in vivo, New Zealand White rabbits
# Protocol: Subsequent experiments examined the effects of EGF and an inhibitor of the EGF receptor (tyrphostin 51) on intestinal brush border membrane nutrient absorption. Tyrphostin 51is a specific inhibitor of tyrosine kinase, which is a critical element of the EGF intracellular signalling cascade. Studies were performed in New Zealand White rabbits (700-1000 g; approximately 8 weeks of age). Two 10 cm blind jejunal loops separated by a 1 cm segment were tied off starting 5 cm distal to the ligament of Treitz. In separate experiments either EGF (60 ng/ml), EGF+tyrphostin (10 μM), or tyrphostin (10 μM) alone in 1.5 ml of saline vehicle was administered to one of the loops. The other loop received vehicle alone and served as a paired control. After one hour, the loops were removed and the mucosa scraped for preparation of brush border membrane vesicles. Nutrient (D-glucose and L-proline) uptake into brush border membrane vesicles was determined by established techniques. Luminal EGF stimulated a significant increase (p<0.001) in brush border membrane glucose (EGF 16.1±1.0 vs CONTROL 11.5±0.9 nmol/min/mg protein; n=5) and proline (EGF 3.8±0.5 vs CONTROL 2.6±0.3 nmol/min/mg protein; n=5) transport compared to controls. […] Subsequently, a further series of experiments examined the effect of tyrphostin alone on brush border glucose transport. […] Thus, EGF treatment increases nutrient absorption and promotes weight gain. Conversely, tyrphostin treatment may promote a decrease in weight gain or weight loss and therefore may be useful in the treatment of obesity. Tyrphostin treatment may also reduce the intestinal uptake of toxic or adverse substances.
# [7] = jejunum mucosa, 7 days after inoculation
molecule,measurement,setting,value
B1,microorganisms adhering to the epithelial surface (scanning electron microscopy),"[1]; Transwell membrane studies, bacterium not specified",significantly higher numbers of microorganisms adhering to the epithelial surface of untreated monolayers
same,delay of initial E. coli translocation,[1]; apical EGF 100 μM 15 min prior to infection,1 h
same,inhibition of rate of E. coli invasion (transepithelial migration rate),"[1]; apical EGF 100 μM, after the initial delay",> 95%
same,translocation of S. typhimurium,[2],completely abolished
same,stability in drinking water,[3],proven stable
same,stool cultures for E. coli,[4]; I-EGF group,positive
same,animals with diarrhea,"[4]; I-EGF group, 4 animals in infected group",none
same,effect on infection-induced reduced weight gain,[4]; I-EGF vs I,prevented
same,effect on jejunum maltase and sucrase activities,[4]; I-EGF vs I,prevented the decrease
same,"reduction of E. coli colonization in the jejunum, ileum and proximal colon",[4]; compared to infected (I),> 85%
same,E. Coli ILE,"[4]; ileum mucosa, 7 days after inoculation",4.88 ± 0.2 Log10 CFU/cm
same,"% bacterial clearance in infected + EGF group, ILE","[4]; ileum, vs infected",95%
same,Cumulative Weight Gain,"[4]; infected rabbits, 60 μg oral EGF daily for 10 days, 7 days after inoculation",316 ± 16 grams
same,E. Coli JEJ,[4]; [7],3.10 ± 0.4 Log10 CFU/cm
same,MALT (jejunum maltase activity),[4]; [7],436 ± 48 u/g
same,SUC (jejunum sucrase activity),[4]; [7],89 ± 19 u/g
same,"% bacterial clearance in infected + EGF group, JEJ","[4]; jejunum, vs infected",92%
same,E. Coli PROX,"[4]; proximal colon mucosa, 7 days after inoculation",4.09 ± 0.2 Log10 CFU/cm
same,"% bacterial clearance in infected + EGF group, PROX","[4]; proximal colon, vs infected",85%
same,mean cumulative weight gain,"[5]; at 9 days, 100 μg/kg body weight daily oral, n=10, controls 394±16 g",422 ± 27 g
same,slope of the linear regression curve of weight gain,"[5]; vs untreated controls, P 0.002, FIG. 1",significantly greater
same,brush border membrane proline transport,"[6]; EGF 60 ng/ml luminal, one hour, n=5, control 2.6±0.3",3.8±0.5 nmol/min/mg protein
same,brush border membrane glucose transport,"[6]; EGF 60 ng/ml luminal, one hour, n=5, control 11.5±0.9",16.1±1.0 nmol/min/mg protein
same,glucose absorption in intact tissue,"[6]; luminal EGF, initial experiments",increased

# From US6656907B1, “Method of treating gastric ulcer by administration of epidermal growth factor” (University Technologies International Inc., priority 1995, dated 2003)
